# Assay results reported in paper PMC3886910 (PLoS Neglected Tropical Diseases, 2014).
# Where two headings read alike, the source gives them in different places.
# Experiments:
# [1] = target: native SjCP1531 (Schistosoma japonicum (endogenous in egg and adult worm extracts)); experiment: SDS-PAGE and immunoblot (oligomer bands)
# [2] = target: SjCP3842, recombinant (Schistosoma japonicum); experiment: SEC
# [3] = target: SjCP3842, recombinant (Schistosoma japonicum); experiment: SDS-PAGE and western blot (oligomer bands)
# [4] = target: SjCP1084, recombinant (Schistosoma japonicum); experiment: SDS-PAGE and western blot (oligomer bands)
# [5] = target: native SjCP3842 (Schistosoma japonicum (endogenous in egg and adult worm extracts)); experiment: SDS-PAGE and immunoblot (oligomer bands)
# [6] = target: native SjCP3842 (Schistosoma japonicum (endogenous in egg and adult worm extracts)); experiment: SDS-PAGE and immunoblot (oligomer bands); remark: listed apart in the source
# SjCP3842 = target: T1, SjCP3842 (Schistosoma japonicum, UniProt Q6PYV4); experiment: UV-visible differential spectral titration (Soret […] nm); also hemin-agarose pulldown and heme peroxidase binding assay
# T1 construct: gene CP3842
# [7] = target: native SjCP1084 (Schistosoma japonicum (endogenous in egg and adult worm extracts)); experiment: SDS-PAGE and immunoblot (oligomer bands)
# [8] = target: SjCP1531, recombinant (Schistosoma japonicum); experiment: SDS-PAGE and western blot (oligomer bands)
compound,measurement,setting,value
native SjCP1531 (natural protein),stoichiometry N,[1],4
"SjCP3842, recombinant (natural protein)",stoichiometry N,[2],4
same,stoichiometry N,[3],4
"SjCP1084, recombinant (natural protein)",stoichiometry N,[4],4
native SjCP3842 (natural protein),stoichiometry N,[5],4
same,stoichiometry N,[6],2
C=CC1=C(C)C2=Cc3c(C=C)c(C)c4[n]3[Fe][n]3c(c(C)c(CCC(=O)O)c3=CC3=NC(=C4)C(C)=C3CCC(=O)O)=CC1=N2 [heme],Kd,SjCP3842,1610 nM
native SjCP1084 (natural protein),stoichiometry N,[7],4
"SjCP1531, recombinant (natural protein)",stoichiometry N,[8],4
